From paper PMC4384728 (The Journal of Cell Biology, 2015) come the findings set out here.

In one assay the target is T1, HA-VEGFR2-TMD.
T1 chain: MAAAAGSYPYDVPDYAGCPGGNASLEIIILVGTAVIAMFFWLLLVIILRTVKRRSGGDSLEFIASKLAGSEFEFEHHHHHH
The experiment in a line: pull-down.

The target in a further assay is T2, HA-VEGFR3-TMD.
T2 chain: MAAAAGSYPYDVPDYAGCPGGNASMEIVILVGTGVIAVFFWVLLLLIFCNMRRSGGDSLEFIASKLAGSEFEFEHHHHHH
Kind of assay: pull-down.

B1: Flag-VE-TMD (domain or fragment)
chain: MAAAAGSDYKDDDDKGCPGGNASVSIQAVVAILLCILTITVITLLIFLRRRSGGLNDIFEAQKIEWHESSEFEFEHHHHHH
On to B1, for which the binding result with HA-VEGFR2-TMD and with HA-VEGFR3-TMD was “binds” throughout.
